Legend:
[1] = molecular target: T1, HBc18-27-HLA-A201 pentamer (PE-conjugated HLA-A2 class I pentamer bearing the HBc18-27 epitope, Proimmune) (Hepatitis B virus; human); assay: flow cytometry, pentamer staining of transduced lymphocytes; the filing puts the difference down to expression of the Vα3 chain
T1 construct: also called HLA-A2 pentamer; HBc18-HLA-A201 pentamer

[2] = molecular target: T2, HBV core antigen (HBc18-27, genotype B/C; 27I) peptide on HLA-A*02:01 (human); assay: T cell clone or line
T2 peptide: FLPSDFFPSI

[3] = molecular target: T3, HBV core antigen (HBc18-27, genotype B/C; 27I) peptide on HLA-A*02:06 (human); assay: T cell clone or line
T3 peptide: FLPSDFFPSI

[4] = molecular target: T4, HBV core antigen (HBc18-27, genotype B/C; 27I) peptide on HLA-A*02:07 (human); assay: T cell clone or line
T4 peptide: FLPSDFFPSI

[5] = molecular target: T5, HBV envelope antigen (HBs370-79, genotype A/D) peptide on HLA-A*02:01 (human); assay: cytokine release
T5 peptide: SIVSPFIPLL

[6] = molecular target: T6, HBV envelope antigen (HBs370-79, genotype B) peptide on HLA-A*02:01 (human); assay: cytokine release
T6 peptide: NILSPFMPLL

[7] = molecular target: T7, HBV envelope antigen (HBs370-79, genotype C) peptide on HLA-A*02:01 (human); assay: cytokine release
T7 peptide: NILNPFLPLL

B1: HBc18-Opt-TCR (codon optimized HBc18-27 TCR, Vα3 / Vβ8.2) (TCR, V domains shown)
V domain 1: SQQGEEDPQALSIQEGENATMNCSYKTSINNLQWYRQNSGRGLVHLILIRSNEREKHSGRLRVTLDTSKKSSSLLITASRAADTASYFCATWLSGSARQLTFGSGTQLTVLP
V domain 2: DAGVIQSPRHEVTEMGQEVTLRCKPISGHDYLFWYRQTMMRGLELLIYFNNNVPIDDSGMPEDRFSAKMPNASFSTLKIQPSEPRDSAVYFCASSNRASSYNEQFFGPGTRLTVLE
notes: also called codon optimized TCR; HBc18-Opt-Vα3 and HBc18-Opt-Vβ8.2
fold frequency of pentamer positive cells against HBc18-WT-TCR [1]: 2 fold

B2: HBc18-27 TCR (TCR, V domains shown)
Valpha: SQQGEEDPQALSIQEGENATMNCSYKTSINNLQWYRQNSGRGLVHLILIRSNEREKHSGRLRVTLDTSKKSSSLLITASRAADTASYFCATWLSGSARQLTFGSGTQLTVLP
Vbeta: DAGVIQSPRHEVTEMGQEVTLRCKPISGHDYLFWYRQTMMRGLELLIYFNNNVPIDDSGMPEDRFSAKMPNASFSTLKIQPSEPRDSAVYFCASSNRASSYNEQFFGPGTRLTVL
peptide concentration still recognised [2]: ≤ 1 pM | peptide concentration still recognised [3]: ≤ 1 pM | peptide concentration still recognised [4]: ≤ 1 pM

B3: HBs370-79 TCR (TCR, V domains shown)
Valpha: QKEVEQNSGPLSVPEGAIASLNCTYSDRGSQSFFWYRQYSGKSPELIMFIYSNGDKEDGRFTAQLNKASQYVSLLIRDSQPSDSATYLCAVNLYAGNMLTFGGGTRLMVKP
Vbeta: GAGVSQSPRYKVAKRGQDVALRCDPISGHVSLFWYQQALGQGPEFLTYFQNEAQLDKSGLPSDRFFAERPEGSVSTLKIQRTQQEDSAVYLCASSSDFGNQPQHFGDGTRLSIL
binding result [5]: recognises | binding result [6]: recognises | binding result [7]: recognises
